Measurements taken from patent publication US20120129766A1 (IRM, published 2012).

target: T1, human β-klotho (human, UniProt Q86Z14 1-1044); test: cell-based or functional assay
T1 sequence (looked up): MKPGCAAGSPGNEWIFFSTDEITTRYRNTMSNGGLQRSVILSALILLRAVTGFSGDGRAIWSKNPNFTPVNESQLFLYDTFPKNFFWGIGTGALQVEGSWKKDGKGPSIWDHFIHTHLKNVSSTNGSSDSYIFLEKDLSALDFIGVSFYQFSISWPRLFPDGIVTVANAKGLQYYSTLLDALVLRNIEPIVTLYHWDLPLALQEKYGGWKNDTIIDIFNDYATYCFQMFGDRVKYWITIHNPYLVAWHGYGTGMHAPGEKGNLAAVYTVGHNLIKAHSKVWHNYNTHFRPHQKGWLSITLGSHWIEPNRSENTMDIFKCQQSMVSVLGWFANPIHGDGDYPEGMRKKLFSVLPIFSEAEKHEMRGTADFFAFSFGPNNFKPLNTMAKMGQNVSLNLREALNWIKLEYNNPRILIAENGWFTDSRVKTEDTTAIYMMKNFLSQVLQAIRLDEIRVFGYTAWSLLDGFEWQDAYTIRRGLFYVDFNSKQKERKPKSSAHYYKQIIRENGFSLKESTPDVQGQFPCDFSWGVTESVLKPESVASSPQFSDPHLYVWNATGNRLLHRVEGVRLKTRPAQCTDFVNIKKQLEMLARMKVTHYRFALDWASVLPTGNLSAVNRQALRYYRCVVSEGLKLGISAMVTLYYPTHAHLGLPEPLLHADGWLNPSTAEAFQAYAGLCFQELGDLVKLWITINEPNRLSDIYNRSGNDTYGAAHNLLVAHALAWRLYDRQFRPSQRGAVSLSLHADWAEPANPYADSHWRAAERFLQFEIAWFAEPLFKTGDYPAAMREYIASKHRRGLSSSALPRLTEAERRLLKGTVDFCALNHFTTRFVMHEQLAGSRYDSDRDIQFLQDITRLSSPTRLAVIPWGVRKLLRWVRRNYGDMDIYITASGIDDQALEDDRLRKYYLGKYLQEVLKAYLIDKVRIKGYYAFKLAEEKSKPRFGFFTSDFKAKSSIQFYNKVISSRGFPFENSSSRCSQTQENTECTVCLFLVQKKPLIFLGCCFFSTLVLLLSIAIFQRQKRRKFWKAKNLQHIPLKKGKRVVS

Binder	EC50 (nM), pERK In Cell Western [nM]	Fold-WT (EC50 of variant / EC50 of FGF21-WT) [fold]
hFGF21(33-209)-V5 (ligand) DSSPLLQFGGQVRQRYLYTDDDQQTEAHLEIREDGTVGGAAHQSPESLLQLKALKPGVIQILGVKASRFLCQKPDGALYGSLHFDPEACSFRELLLENGYNVYQSEAHGLPLHLPGNRSPHRDPASQGPARFLPLPGLPPALPEPPGILAPQPPDVGSSDPLAMVGPSQARSPSYAS	26	9.3
hFGF21(33-209)-V53 (ligand) DSSPLLQFGGQVRQRYLYTDDAQETEAHLEIREDGTVGGAAHQSPESLLELKALKPGVIQILGVKTSRFLCQKPDGALYGSLHFDPEACSFRELLLENGYNVYQSEAHGLPLHLPGNRSPHRDPASQGPARFLPLPGLPPAPPEPPGILAPQPPDVGSSDPLAMVGPSQGRSPSYAS	4.2	1.3
hFGF21(33-209)-V18 (ligand) DSSPLLQFGGQVRQRYLYTDDAQQTESHLEIREDGTVGGAAHQSPESLLQLKALKPGVIQILGVQTSRFLCQKPDGALYGSLHFDPEACSFRELLLENGYNVYQSEAHGLPLHLPGNRSPHRDPAPQGPARFLPLPGLPPALPEPPGILAPQPPDVGSSDPLAMVGPSQGRSPSYAS	15	2.7
hFGF21(33-209)-V54 (ligand) DSSPLLQFGGQVRQRYLYTDDAQQTEAHLEIREDGTVGGAAHQSPESLLELKALKPGVIQILGVKTSRFLCQKPDGTLYGSLHFDPEACSFRELLLENGYNVYQSEAHGLPLHLPGNRSPHRDPASQGPARFLPLPGLPPAPPEPPGILAPQPPDVGSSDPLAMVGPSQGRSPSYAS	25	9.2
hFGF21(33-209)-V12 (ligand) DSSPLLQFGGQVRQRYLYTDDDQQTEAHLEIREDGTVGGAAHQSPESLLQLKALKPGVIQILGVQTSRFLCQKPDGALYGSLHFDPEACSFRELLLENGYNVYQSEAHGLPLHLPGNRSPHRDPAPQGPARFLPLPGLPPALPEPPGILAPQPPDVGSSDPLAMVGPSQGRSPSYAS	14	5
hFGF21(33-209)-V11 (ligand) DSSPLLQFGGQVRQRYLYTDDDQQTEAHLEIREDGTVGGAAHQSPESLLELKALKPGVIQILGVKTSRFLCQKPDGALYGSLHFDPEACSFRELLLENGYNVYQSEAHGLPLHLPGNRSPHRDPAPQGPARFLPLPGLPPALPEPPGILAPQPPDVGSSDPLAMVGPSQGRSPSYAS	28	18
hFGF21(33-209)-V52 (ligand) DSSPLVQFGGQVRQRYLYTDDAQQTEAHLEIREDGTVGGAAHQSPESLLQLKALKPGVIQILGVKTSRFLCQKPDGALYGSLHFDPEACSFRELLLENGYNVYQSEAHSLPLHLPGNKSPHRDPASQGPARFLPLPGLPPALPEPPGILAPQPPDVGSSDPLSMVGPSQARSPSYAS	66	94
hFGF21(33-209)-V10 (ligand) DSSPLLQFGGQVRQRYLYTDDAQETEAHLEIREDGTVGGAAHQSPESLLQLKALKPGVIQILGVKASRFLCQKPDGALYGSLHFDPEACSFRELLLENGYNVYQSETHGLPLHLPGNKSPHRDPASQGPARFLPLPGLPPALPEPPGILAPQPPDVGSSDPLAMVGPSQARSPSYAS	18	3.3
hFGF21(33-209)-V16 (ligand) DSSPLLQFGGQVRQRYLYTDDAQETEAHLEIREDGTVGGAAHQSPESLLQLKALKPGVIQILGVKASRFLCQKPDGALYGSLHFDPEACSFRELLLENGYNVYQSEAHGLPLHLPGNRSPHRDPAPQGPARFLPLPGLPPALPEPPGILAPQPPDVGSSDPLAMVGPSQGRSPSYAS	11	6.5
hFGF21(33-209)-V14-pool2 (ligand) DSSPLLQFGGQVRQRYLYTDDAQETEAHLEIREDGTVGGAAHQSPESLLELKALKPGVIQILGVKTSRFLCQKPDGALYGSLHFDPEACSFRELLLEDGYNVYQSEAHGLPLHLPGNRSPHRDPAPQGPARFLPLPGLPPALPEPPGILAPQPPDVGSSDPLAMVGPSQGRSPSYAS	5.3	1.4
hFGF21(33-209)-V14-L174P, R154C-40 kDa bPEG-MA (ligand, 40 kDa branched maleimido-PEG on Cys 154 (numbered on SEQ ID NO:1)) DSSPLLQFGGQVRQRYLYTDDAQETEAHLEIREDGTVGGAAHQSPESLLELKALKPGVIQILGVKTSRFLCQKPDGALYGSLHFDPEACSFRELLLENGYNVYQSEAHGLPLHLPGNRSPHCDPAPQGPARFLPLPGLPPAPPEPPGILAPQPPDVGSSDPLAMVGPSQGRSPSYAS	21	3.3
hFGF21(33-209)-V7 (ligand) DSSPLLQFGGQVRQRYLYTDDAQETEAHLEIREDGTVGGAAHQSPESLLQLKALKPGVIQILGVKASRFLCQKPDGALYGSLHFDPEACSFRELLLENGYNVYQSEAHGLPLHLPGNRSPHRDPASQGPARFLPLPGLPPALPEPPGILAPQPPDVGSSDPLAMVGPSQARSPSYAS	19	6.8
hFGF21(33-209)-V15 (ligand) DSSPLLQFGGQVRQRYLYTDDAQETEAHLEIREDGTVGGAAHQSPESLLQLKALKPGVIQILGVQTSRFLCQKPDGALYGSLHFDPEACSFRELLLENGYNVYQSEAHGLPLHLPGNRSPHRDPAPQGPARFLPLPGLPPALPEPPGILAPQPPDVGSSDPLAMVGPSQGRSPSYAS	3.3	1.2
hFGF21(33-209)-V14-R154C, L174P (ligand) DSSPLLQFGGQVRQRYLYTDDAQETEAHLEIREDGTVGGAAHQSPESLLELKALKPGVIQILGVKTSRFLCQKPDGALYGSLHFDPEACSFRELLLENGYNVYQSEAHGLPLHLPGNRSPHCDPAPQGPARFLPLPGLPPAPPEPPGILAPQPPDVGSSDPLAMVGPSQGRSPSYAS	6.7	1
hFGF21(33-209)-V14-pool1 (ligand) DSSPLLQFGGQVRQRYLYTDDAQETEAHLEIREDGTVGGAAHQSPESLLELKALKPGVIQILGVKTSRFLCQKPDGALYGSLHFDPEACSFRELLLENGYNVYQSEAHGLPLHLPGNRSPHRDPAPQGPARFLPLPGLPPALPEPPGILAPQPPDVGSSDPLAMVGPSQGRSPSYAS	6.7	1.4
hFGF21(33-209)-V14pool 1-N-40 kDa bPEG-AL (ligand, 40 kDa branched PEG (aldehyde reagent) on the N-terminal amine) DSSPLLQFGGQVRQRYLYTDDAQETEAHLEIREDGTVGGAAHQSPESLLELKALKPGVIQILGVKTSRFLCQKPDGALYGSLHFDPEACSFRELLLENGYNVYQSEAHGLPLHLPGNRSPHRDPAPQGPARFLPLPGLPPALPEPPGILAPQPPDVGSSDPLAMVGPSQGRSPSYAS	107	22
hFGF21(33-209)-V13 (ligand) DSSPLLQFGGQVRQRYLYTDDDQQTEAHLEIREDGTVGGAAHQSPESLLQLKALKPGVIQILGVKASRFLCQKPDGALYGSLHFDPEACSFRELLLENGYNVYQSEAHGLPLHLPGNRSPHRDPAPQGPARFLPLPGLPPALPEPPGILAPQPPDVGSSDPLAMVGPSQGRSPSYAS	11	4
